In paper PMC4975591:

Molecular target: T1, Full-length cysteine string protein CSP(1-198), Q9H3Z4
T1 chain: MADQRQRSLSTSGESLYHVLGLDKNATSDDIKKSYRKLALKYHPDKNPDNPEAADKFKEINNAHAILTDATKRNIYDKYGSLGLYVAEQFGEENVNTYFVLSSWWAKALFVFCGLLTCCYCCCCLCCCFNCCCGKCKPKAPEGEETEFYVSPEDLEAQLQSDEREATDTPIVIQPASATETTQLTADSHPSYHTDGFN
Assay: AUC; sedimentation velocity, 50,000 rpm, 20.1°C, 9 hr, absorbance at 279 nm; self-association of purified recombinant protein
Conditions: remark: other sources report otherwise

- stoichiometry N: > 10 subunits
B1: Full-length cysteine string protein CSP(1-198), Q9H3Z4 1-198 (natural protein)
chain: MADQRQRSLSTSGESLYHVLGLDKNATSDDIKKSYRKLALKYHPDKNPDNPEAADKFKEINNAHAILTDATKRNIYDKYGSLGLYVAEQFGEENVNTYFVLSSWWAKALFVFCGLLTCCYCCCCLCCCFNCCCGKCKPKAPEGEETEFYVSPEDLEAQLQSDEREATDTPIVIQPASATETTQLTADSHPSYHTDGFN
